In the DeepSol protein solubility set:

assay: soluble on expression in E. coli; label from the status in PepcDB or PDB records

Soluble on expression in E. coli, not soluble:
MGSDKIHHHHHHMCRWLAYSGRSVPLEAVLFQPEHSLIDQSLNARLGHTTTNGDGFGVGWYGRHSEVPFRYRCLHPAWSDTNLRETARAVRAPLFVAHVRAATGTPTQETNCHPFRFGRWLFVHNGLIREFPLLRRDLMMAVSPQLFRWIEGSTDSEIMFFLALTFGLERDPRAALEQMVGLIEEVGHRYDVEHPINMTVCVTDGQQIVAVRYSSEADSRSLFHSTSFRQLRELYPDDPRIIAAGDDAFLVLSEPLIDVQGVWQEIPEATILVGRAGVIDYSRFTPRMPELSS
MGSDKIHHHHHHMCRWLAYTGNPLQLETVLFNARHSLIDQSLHSRLGYTTTNGDGFGIGWYGEPTDIPFRYRCIQPAWSDRNLREAARAIRAPLFVAHVRSATDTPSQETNCHPFRHGRWLFAHNGLIRNYPAVRRDLMVMIDPDLFPSIEGSTDSEVMFFLALTFGLELAPVTALERMVAFVEETGRKHGVDEPLNMTVCVTDGEQIVAVRYSSEGQSRSLFHSTSFHHLHELYPDDPRIAAAGENAFLVLSEPLADLPGWWEEIPESTVVVARGGQIEQYPFRPQSA
MGSDKIHHHHHHMCYNNSMNERYIRFNPNIAKQKPSNKDKCPFCDKSQLGKILDVKDDMIWVENKYPTLEETYQTLVIESNDHNGDISVYSESKMRQLLDYLLSKWQLMEESGHYRSVVLYRNFGPLSGGSLRHPHSQIVGLKNVDAYETLNLDWFDGIEVCSETSQQAEISIANRPMLDFTEFTIKVSKLENAILIADSLPILCHYILNEFLGGRCKSYNLFFYKHDGGLICKIVPRFIVSPYQIGYAIHQVNLPDELEKIKEALRAKYYL
MGSDKIHHHHHHMDADELELKGHLKKLKKEELLRRKQLKESNLQKRELEYNNASKNTSIYISGLPTDKTTKEGLTEQFCKYGMIRTNRDGEPLCKLYVNDKGAFKGDALITYSKEESVTLAIEMMNESIFLGKQIRVERAQFQNKEGDNMHGKENDLKEFNGPEPPIKRLKKAKSEGEGEVIDYNDDESLAKADRTVIFANVFNIYKSYTNDDINDIQEDLLEGCEEIGQVDSISVSPNKGEATVVFKNNKVALQCCKIMTGRYFDGQKLLAFISGDENTSSTSDKNEDSEVEDDLI
MGSDKIHHHHHHMDAIVNTVNCVGVMGKGIALQFKNKWPANYSAYEAACKAKQVRPGTMFVFDSGGLVKPNYIINFPTKDHWRGKSRVEFIRDGLVDLVAQVKRLGIRSIAIPPLGCGNGGLEWDEVRPLIEQAFAVLPDVEVRLFAPAGAPDPKSMEVKTSRPKMTAGRAAILKVLDTYRSLEYGLSRIEVQKLAYFLQEAGESLSLSFVKNQYGPYSDQLRHALNRMEGHFIRGLGDGVVDAEIEPLEDALAEAEQYVSASGHAALARHVERVANLIEGFQTPYGMELLATVHWVATHEPTAHSFDQVVSAVHAWNERKARIMQPAHVRAAWSRLDAQGWL
MGSDKIHHHHHHMDDIPALMRSLQLKRKPLMVCSGGTTSRCAAEGHWTLDLRQSCRQIHFDPSTQHVEIGAGQTMESLLRELAKHGRSFPTGLSGLPGLGYILNGGISPLSRSQGLAIDQILEIKGVWGDGESFVLSKPEAACCSEDQLAWRGLCGAAPFLAVITDLKLQTHLLQPLRIWQSNLTFEQLLELIHQAESWPDSLSLQWIWGDEVHAYGVLLSADAAAVATFNQLQKTTLCTNVVEIDDVAGIHELPPFALPVVSNAAIGRCHSEVVALLGPAWGSGCQGVITALAELMAERPDPRCSLAVQQLGGVASRQRKDVSSLIHREAIWKPWITAAWPAGDSHIRALSLNWLEKVWATLEPYCAGVHLAQMHPHLPWHQRELKAAFGEWLPGLQELKARHDPNGILPSL
MGSDKIHHHHHHMDFIEVYPNALPDDLCDRLILAFDQHTGVVDGQTGNGVDPEKKISRDLTLDNFDDMQPLKNELLSYTLKGVVDYFTQYSMALMGAVAVSVSDAEGKPTTLTPSNFAQLGLPKVDGLVKYLYRSGSINIQKYQRNKGGYPHWHSEQFPQSGHNEALHRVVFYMFYLNDVEEGGETEFYYQRRKISPKKGTMVIAPAGFTHSHRGNMPISNDKYIATSWVMFNRAEQLYTVYA
MGSDKIHHHHHHMDFKQVQQSFIDYIRDPQRPVPVGVPLARMQVYRELFFNNVMGFVSNGFPVLKSLYTDEQWQTLVQAFFGQHDCKSPVFIDIAGEFLDFLQFQYSPMDSDPPFMLELAHYEWLELRVATAQQDDRQELIGKEDITYRNLCLAATASVAQYQYPVQQIRPDYRPSEPLVNPVYFCLYQDEVGEVGFLQLTPLSAQVLGYLTEKGQGTFDELTQWLAATYPQMPTETLTQGCLALLEQLATKSIVRGV
MGSDKIHHHHHHMDIAMVYSDRLLSPQIPPSRKLRVLKEVEIRLIEGEEQEVEELIMQIHSEEYFSRIRSHPFFENAVENVKCILTGLKALKDYDAVIVPVTTAGHLAEQSRMRGYCLLNGLAIAVKAAESYGRIAVIETDAHHGKASIVSEERATFFCIGRRECEISEDLRCVLGRRMGKDYVKSFEELVERVKEYDPNLVIWYLGLDLDSREYAEMPFGREEWEKLVKNFMKMAEGRKSLIMLALGLRDDVLKDIVGLFAGW
MGSDKIHHHHHHMDIISSFGFGRKHIAPILSKLMMLYPKLQIHFDTIDNTKDLIQHSIDLDIRIGNEIAPNMIAKKLASNFRILCASPSYLLKHGVPDSIEDLQTHDCLTISERDQSSVLWKFRHASEDVSVHIKPRFVSNNGEIIHQLAIEGHGIIFRSIWDVADELITGQLQHILPEYWQDADVWAVYPSRLKSSSKLQTCILFIQNELLNRLQHVQNLSRGQLISPAVKREPPPEKVFL
MGSDKIHHHHHHMDKMLYTAASGASRIMEAQSIRANNLANAETTGFKADLERVKSMALPGVEASLSTRVLVQTQSNGFSQQSGEMNHTGRNLDMAIRDRGLFTVMVDGGEAYTRAGAMIADAEGQLTVNGRPVLGIDGPMVLPEHKDLFVGEDGTISVLPAEGGVIQEVGRLKMVNPELNELTKGADGLLYPIAAGVLAADDGVQVDSGYLESSNVQAVSELIASMDLSRQFEIQVKLMKSAEKLAEAGNRLIRNA
MGSDKIHHHHHHMDLSKIASTINMRYYSQLGGFQVGGAVSGLDTQSIINAILEAESQPLQNLTEKYEKYELMQEAYTEVKTKLREFRDLVYSFKLQSTVVQKTAVSSSSLLSAEASSVAVTGVYHVKIVQTATYTTLAGASEVVPPPDSTKTFGELDYMYTPQEGTVRLYNNETGNYVEVQVLSTDTIDDIVSKLNSALSSAGITGSVSYDTSTGKISITSDKNFSLVDITGNFTKVFHLDEASLNYSGGNYSFTSTASVSGLSTAKTLQQIATYTSKTIISGKVKINGVEIDVDQNDTLSSLIEKINDSEAGVTASYDYHANRVVIISKTSGPEAITLEDTYGTGLFSLLGIENHSLYVGQKAHLQISMDGTNWADVYSDTNDVEYNGVTFHISGMTSETITVDVRVDTDAIVEKIKEFVDKWNETMDYLNEKLTEESITDKDEEEMTEEEKMKGVLKGDDLLEEIFSRLRGFITYKAEGDINYLWELGISTGDIGTGYENMMKGHLEVDEEKLKQIVEEDPNKVWEFFGGENGFATQLDDYLWELVKFNGRIDQVAGISGRIEREQRFLATQIASWIERLSKREQELWRKFSVMEEVISQLQSQGSWISQALQGSSNK
MGSDKIHHHHHHMDNEIVSSWHQGELAVQQRAGTDERMAEIGPKFIREFMPQQHRDFFQSLSMIFVGYTDHCSNAYASVLFGAPGFIQSPTETELVINTQSTIGDFIIEDLREGDHIGLVGIEFDTKRRNRINGVITDINQKNIKVKVLQSYGNCPKYIQPKEFAPNRSYSEFTTVSLDQLSQKYREIISSADTFFIASSFDDGQKFRNRGVDVSHRGGEVGFVSINAAGQLLVDDYVGNGFFNTLGNLLENPIASLLFCDWQTGHVLKIAVSSEILWHDEQQDSVVLAAGKVKRSLCFTPIKIEQFNNGLAYIQQF
